Target: the molecule itself
Test: SAXS

B1: Ipomoea batatas BAM5 (sweet potato beta-amylase) (enzyme)
chain: APIPGVMPIGNYVSLYVMLPLGVVNADNVFPDKEKVEDELKQVKAGGCDGVMVDVWWGIIEAKGPKQYDWSAYRELFQLVKKCGLKIQAIMSFHQCGGNVGDAVFIPIPQWILQIGDKNPDIFYTNRAGNRNQEYLSLGVDNQRLFQGRTALEMYRDFMESFRDNMADFLKAGDIVDIEVGCGAAGELRYPSYPETQGWVFPGIGEFQCYDKYMVADWKEAVKQAGNADWEMPGKGAGTYNDTPDKTEFFRPNGTYKTDMGKFFLTWYSNKLIIHGDQVLEEANKVFVGLRVNIAAKVSGIHWWYNHVSHAAELTAGFYNVAGRDGYRPIARMLARHHATLNFTCLEMRDSEQPAEAKSAPQELVQQVLSSGWKEYIDVAGENALPRYDATAYNQMLLNVRPNGVNLNGPPKLKMSGLTYLRLSDDLLQTDNFELFKKFVKKMHADLDPSPNAISPAVLERSNSAITIDELMEATKGSRPFPWYDVTDMPVDGSNPFD
How did the “stoichiometry N” value turn out when B1 was run?
Its value is 4.
